Source: the DeepSol protein solubility set

Test: soluble on expression in E. coli; label from the status in PepcDB or PDB records

Sequence | soluble on expression in E. coli
TTCDELISLCDEHHMSVADVVWANETAMRSAVQVRSDLDTVWHVMRRCVQHGCNTNQTVLPGGLDVPRRAPKMYARLASNSDVLKRDGRRSDAVLESSDAAWVDLFALAVSEENAAGGRIVTAPTNGAAGVIPAVLHYYWHFVDHADEDGVVTFLLTAGAIGYLFKRNASISGAEVGCQGEVGTACSMAAAGLCAVMGGTPHQVENAAEIGIEHNLGLTCDPVGGLVQIPCIERNAMAANTAINAVRMAMLGDGTHIVSLDQAIKTMKDTGEDMMAKYKETSKGGLAVN | not soluble
MGSDKIHHHHHHMQGRTPLLETLRELECEIRLLTVYARECCGCYEILRRKLDRLSGLIGEDCSRAQWQADSDDPALQALGLRLRDAAVQALCELEKHLCQGVLHEPGEMGRYLGSLLESIRGELDSAGIYAYARVLFVGSGALPTSALVLAREVGAHLCCLDIDEEALGCAREIARCQGLEARMQFSSLPPAELAFSRDATHFLIASLVQQKSAVLAQIRQVMRADAKVLLRHGSGIKGLFNYPVEPAELDGWRVCAERVSQPLYDTLILEKAGR | not soluble
MGSDKIHHHHHHMKVLHLIDSGGLYGAERMLLALVAEQIQQGLEPMILSAGEQGIHQKPLEIEAEKLGLPLVVWRMTPGLNYPETRKICEWAEHWGVDLVHSHGYKFNILMSLFSRFSRKVPVVSTLHGYVHAPRFSRMWVYELLDRLAISRLDGVIMVGAAMKKELSTGLIRPRRLTTIRNGLAVDDTQRKATEPLPEALEEFFSTHEPVILGVGRLSKEKGFSHLVDSFREIKQSAPKAGLLIVGDGMLRKDLEDQVARLGLGSDVCLPGYCDNVPALMARSSALVISSSTEGLPITLLEAMAVRLPVVSTDVGEISFVLDEGDSGVLVKDPASELVDAIELVLNETEATHRKTEQAFHKVSGELSARSMAEQYLRVYNGVVAS | not soluble
MSLKPLHYTASALALGLALMGNAQAVTTIPFWHSMEGELGKEVDSLAQRFNAENPDYKIVPTYKGNYEQNLSAGIAAFRTGNAPAILQVYEVGTATMMASKAIKPVYDVFKEAGIQFDESQFVPTVSGYYSDSKTGHLLSQPFNSSTPVLYYNKDAFKKAGLDPEQPPKTWQDLADYAAKLKASGMKCGYASGWQGWIQLENFSAWNGLPFASKNNGFDGTDAVLEFNKPEQVKHIAMLEEMNKKGDFSYVGRKDESTEKFYNGDCAMTTASSGSLANIREYAKFNYGVGMMPYDADAKDAPQNAIIGGASLWVMQGKDKETYTGVAKFLDFLAKPENAAEWHQKTGYLPITKAAYDLTREQGFYEKNPGADTATRQMLNKPPLPFTKGLRLGNMPQIRVIVDEELESVWTGKKTPQQALDTAVERGNQLLRRFEKSTKSEGGSHHHHHH | soluble
GAMDPREVILCKDQDGKIGLRLKSIDNGIFVQLVQANSPASLVGLRFGDQVLQINGENCAGWSSDKAHKVLKQAFGEKITMTIRDRPFERTITMHKDSTGHVGFIFKNGKITSIVKDSSAARNGLLTEHNICEINGQNVIGLKDSQIADILSTSGTVVTITIMPAF | soluble
MTWLDEKGRFAIYEAPQNCPYLGTIGACYEFGSLPVILMFPELEKSFLKLLIRHIREDGYVPHDLGYHSLDSPIDGTTSPPRWKDMNPSLILLVYRYFKFTNDIEFLKEVYPILVKVMDWELRQCKGNLPFMEGEMDNAFDATIIKGHDSYTSSLFIGSLIAMREIAKLVGDSNYVDFISEKLSSAREAFRRMFNGRYFKAWDSVDNASFLAQLYGEWFTTLVGLEDIVEEDIIKKALESIIRLNGNASPHCVPNLVDDNGKIVGLSVQTYSSWPRMVFAICWLAYKKGVGDLSFCKKEWDNLVKNGMVWDQPSRINGYNGKAEMNYLDHYIGSPSPWSFLFLEHHHHHH | not soluble
MEIIRPMRVAIVAESFLPNVNGVTNSVLRVLEHLKANGHDALVIAPGARDFEEEIGHYLGFEIVRVPTVRVPLIDSLPIGVPLPSVTSVLREYNPDIIHLASPFVLGGAAAFAARQLRIPAIAIYQTDVAGFSQRYHLAPLATASWEWIKTVHNMCQRTLAPSSMSIDELRDHGINDIFHWARGVDSKRFHPGKRSVALRKSWDPSGAKKIVGFVGRLASEKGVECLAGLSGRSDIQLVIVGDGPEAKYLQEMMPDAIFTGALGGEELATTYASLDLFVHPGEFETFCQAIQEAQASGVPTIGPRAGGPIDLINEGVNGLLLDVVDFKETLPAAAEWILDDSRHSEMCAAAWEGVKDKTWEALCTQLLQHYADVIALSQRIPLTFFGPSAEVAKLPLWVARALGVRTRISIEALEHHHHHH | soluble
